Experimental data reported in publication PMC2640967.

Target: Vps24 (full-length, two-hybrid fusion) (A. nidulans)
Experiment: two-hybrid

Row | Molecule | fold lower β-galactosidase activity than with DidB^Did2 | fold β-galactosidase activity with Vps24 over that with DidB
1 | Vps4 (two-hybrid fusion) (enzyme) | 30 fold | 
2 | PalB-(1–130) prey (two-hybrid fusion) (domain or fragment) MSRTSSAPSQKSLISRALKAERDVITASSQSQALDAAIDAAEHYMKALALTSSSKDRNVLDAKCKEWLTRAEKIKGSEDWRSVAQSRRSRLRTPASTRKLTTREDIILLQGAKLNGFIFPPWKAEPSLTE |  | 10 fold
